The numbers were not newly measured in article PMC7109175, which cites them from elsewhere.

This data set has as its target cMyBP-C (Mus musculus) (UniProt O70468).
Chain of UniProt O70468 (O70468 whole entry): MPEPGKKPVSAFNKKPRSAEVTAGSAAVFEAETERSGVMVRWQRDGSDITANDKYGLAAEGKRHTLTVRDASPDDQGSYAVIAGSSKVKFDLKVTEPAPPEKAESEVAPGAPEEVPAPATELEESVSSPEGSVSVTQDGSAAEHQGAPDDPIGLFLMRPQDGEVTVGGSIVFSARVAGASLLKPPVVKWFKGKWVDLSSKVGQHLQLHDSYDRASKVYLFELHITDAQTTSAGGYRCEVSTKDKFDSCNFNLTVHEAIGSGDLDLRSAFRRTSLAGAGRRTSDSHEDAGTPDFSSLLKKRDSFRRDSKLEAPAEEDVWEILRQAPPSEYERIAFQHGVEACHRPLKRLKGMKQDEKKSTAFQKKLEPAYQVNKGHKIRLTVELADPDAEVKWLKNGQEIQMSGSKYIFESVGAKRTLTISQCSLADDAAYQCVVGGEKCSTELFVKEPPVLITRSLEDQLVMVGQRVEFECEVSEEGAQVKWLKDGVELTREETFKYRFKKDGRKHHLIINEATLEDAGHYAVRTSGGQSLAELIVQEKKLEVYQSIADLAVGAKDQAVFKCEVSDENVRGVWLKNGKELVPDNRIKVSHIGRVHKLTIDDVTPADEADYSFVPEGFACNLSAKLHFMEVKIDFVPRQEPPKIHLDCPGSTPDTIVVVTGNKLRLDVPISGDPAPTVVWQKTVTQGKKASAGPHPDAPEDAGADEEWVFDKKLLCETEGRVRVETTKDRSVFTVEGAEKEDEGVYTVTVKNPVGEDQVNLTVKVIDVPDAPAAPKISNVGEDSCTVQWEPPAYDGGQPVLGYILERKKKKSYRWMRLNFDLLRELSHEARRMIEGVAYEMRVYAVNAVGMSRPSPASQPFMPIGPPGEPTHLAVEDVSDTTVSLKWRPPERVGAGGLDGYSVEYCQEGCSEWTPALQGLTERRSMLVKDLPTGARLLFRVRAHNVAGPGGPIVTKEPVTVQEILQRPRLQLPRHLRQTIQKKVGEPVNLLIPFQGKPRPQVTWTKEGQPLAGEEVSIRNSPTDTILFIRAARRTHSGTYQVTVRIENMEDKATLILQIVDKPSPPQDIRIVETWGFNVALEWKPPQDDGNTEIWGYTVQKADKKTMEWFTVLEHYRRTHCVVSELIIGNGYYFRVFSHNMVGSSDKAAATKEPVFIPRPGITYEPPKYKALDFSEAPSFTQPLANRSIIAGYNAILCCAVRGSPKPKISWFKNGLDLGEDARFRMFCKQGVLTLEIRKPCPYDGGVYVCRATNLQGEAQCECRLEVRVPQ

By Kd is commonly meant the free concentration of one partner at which half of the binding sites on the other are occupied at equilibrium, for simple one-to-one binding. On to Fhod3 (from UniProt Q76LL6), for which the Kd was 800 nM.
